For this data set, the system named is 40S small ribosomal subunit (rabbit reticulocyte lysate) (rabbit). Kind of data set: sucrose density gradient. The settings on record: EMSA: 20 mM Tris pH 7.6, 50 mM KCl, 2.5 mM MgOAc, 0.05% NP40, 1 mM DTT, 1 ug/uL yeast tRNA, 30 C 20 min, gradients: 20 mM Tris-HCl pH 7.5, 100 mM KOAc. (In general: Mobility shift assays separate free from complexed probe on a gel.)

Bounds are passed on as bounds.

In publication PMC2757703 one finds binding signal (% of labeled RNA bound to small subunit) and binding signal data, which are given here for two substances.

CrPV IRES RNA showed a binding signal (% of labeled RNA bound to small subunit) greater than 50.
GLV IRES RNA showed a binding signal (scale: % of labeled RNA in small-subunit fractions) of 10.
